Experimental data: paper PMC2827208

Experiments:
[1] = biological target: wild type recombinant human RetGC1 (human) (UniProt Q02846); assay: co-localisation of GCAP1-GFP with RetGC1 in co-transfected cells
[2] = biological target: R838S RetGC1 (human) (UniProt Q02846); assay: as above
[3] = biological target: dsRed-tagged RetGC1 (human) (UniProt Q02846); assay: ratio of GFP and dsRed tag fluorescence in co-transfected cells

cell:nucleus GCAP1-GFP fluorescence intensity ratio [1]: 10.6
cell:nucleus GCAP1-GFP fluorescence intensity ratio [2]: 9.3
stoichiometry N (GCAP1 per RetGC1) [3]: 0.86
stoichiometry N ([3]; scale: molar ratio between the two proteins at saturation): 1.01
Substance: GFP-tagged bovine GCAP1 (from UniProt P46065 1-205) (natural protein)
